Results published in US10280218B2, “Antibodies binding to BMP4, and uses thereof” (ACADEMISCH MEDISCH CENTRUM, priority 2014, dated 2019).

Tests used:
BMP4 = biological target: T1, BMP4 (Homo sapiens, UniProt P12644); assay: Phosphorylation of SMAD1/5/8 in EPC2-hTERT cells (western blot); format: cell-based; design: purchased R&D Systems; details: 100 ng/ml BMP4, 4 hours; indicated concentrations
T1 sequence (P12644 293-408): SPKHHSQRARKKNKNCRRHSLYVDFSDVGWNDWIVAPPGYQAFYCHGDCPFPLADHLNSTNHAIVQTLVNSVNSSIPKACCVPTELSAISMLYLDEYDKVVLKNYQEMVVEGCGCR
Experimental: EPC2-hTERT cells were stimulated with mouse BMP4 and pSMAD activation detected by Western Blotting.
To detect phosphorylation of SMAD1/5/8 in vitro, EPC2-hTERTs were cultured in 24-well plates and activated with 100 ng/ml of BMP2, BMP4, BMP5, BMP6 or BMP7 (R&D Systems) for 4 hours with or without VHH at the indicated concentrations. After activation, each well was washed twice with ice-cold PBS and lysed with 100 μl M-PER lysis buffer (Sigma-Aldrich, MO, United States) containing Halt Protease and Phosphatase Inhibitor Cocktail (Thermo Scientific, Landsmeer, The Netherlands). Cell debris were pelleted and supernatant was collected. 15 μg of protein was then separated by 10% SDS-PAGE and transferred onto a PVDF membrane (Millipore, Amsterdam, The Netherlands). The blots were then blocked with 5% milk in Tris-buffered saline supplemented with 0.1% Tween-20 (TBST) for 1 hour at room temperature and washed in TBST before overnight incubation at 4° C. with antiphospho-SMAD1/5/8 (Cell Signalling), anti-βactin (Santa Cruz) or anti-GAPDH (Millipore) in 5% Bovine Serum Albumin (BSA). […] After a final wash with TBST, blots were incubated for 5 minutes in LumiGlow (BIOKE, Leiden, The Netherlands) and then chemiluminescence was detected using a Fuji LAS4000 illuminator (Fujifilm Medical Systems, Stamford, Conn.). Protein was quantitated with Image).

[1] = test system: patient-derived SMAD4 deficient tumors; details: FIG. 6 of Lombardo et al.; cited from earlier work

B1: C8E7: E7 linked to C8, hetero-dimer VHH bihead (protein)
chain: EVQLVESGGGLVQAGGSLRLSCAASGRTFRINDMGWYRQAPGKSRDMVARITSGGNTNYADSVKGRFTISRDNAKNTVYLQMNSLKPEDTAVYYCNADGLRFDSTRYRPFDSWGQGTQVTVSSGGGGSGGGGSEVQLVESGGGLVQAGGSLRLSCAASGSIRGFVAMAWYRQAPGKQREWVATVTNGGTLYGDSVKGRFTGSRDNAKNTVYLQMNSLKPEDTAVYYCALRQIGASGYDYWGQGTQVTVSS
BMP4
  inhibition of BMP4 signaling (pSMAD1/5/8), dimer compared to monomer: better at inhibiting both BMP2 and BMP4 as compared to the E7 monomer

B2: hNoggin (protein)
chain: QHYLHIRPAPSDNLPLVDLIEHPDPIFDPKEKDLNETLLRSLLGGHYDPGFMATSPPEDRPGGGGGAAGGAEDLAELDQLLRQRPSGAMPSEIKGLEFSEGLAQGKKQRLSKKLRRKLQMWLWSQTFCPVLYAWNDLGSRFWPRYVKVGSCFSKRSCSVPEGMVCKPSKSVHLTVLRWRCQRRGGQRCGWIPIQYPIISECKCSC
[1]
  growth of SMAD4 deficient tumors after treatment: generated tumors that grew faster instead of slower
